US5786328A, “Use of kunitz type plasma kallikrein inhibitors” (Genentech, Inc., priority 1995, dated 1998)

Tests used:
Assay in all cases: Specificity assay, fraction of remaining proteolytic activity
Format in all cases: biochemical
Factor XIa = target: T1, Factor XIa (Homo sapiens, UniProt P03951); settings: 100 nM inhibitor; […] enzyme
T1 construct: purchased Haematologic Technologies Inc. (Essex Jct., VT)
Procedure: (§1) Aliquots (30 μL) of various inhibitors diluted to 500 nM were incubated with each protease (100 μL) in the appropriate buffer. After incubation of the substrate/inhibitor mixes at room temperature for 2 h, the appropriate substrate (20 μL) was added, and the absorbance at 405 nm was monitored. Controls lacking inhibitor and enzyme were assayed to measure the uninhibited and substrate hydrolysis rates, respectively. […] The FXIa assay also contained 1 mg/mL BSA. The concentration of FXIa throughout refers to the concentration of active sites. For this experiment, the concentrations of thrombin, TF-FVIIa, FXa, FXIa, FXIIa, and plasmin are 25 approximate and are determined based upon the manufacturers, specifications.
(§2) Serine proteases (1 to 20 nM) were assayed in the presence of 100 nM inhibitor.

activated protein C = target: T2, activated protein C (Homo sapiens, UniProt P04070); settings: 100 nM inhibitor; 7.6 nM enzyme
T2 construct: purchased Haematologic Technologies Inc. (Essex Jct., VT)
T2 sequence (P04070 43-197 limits assumed): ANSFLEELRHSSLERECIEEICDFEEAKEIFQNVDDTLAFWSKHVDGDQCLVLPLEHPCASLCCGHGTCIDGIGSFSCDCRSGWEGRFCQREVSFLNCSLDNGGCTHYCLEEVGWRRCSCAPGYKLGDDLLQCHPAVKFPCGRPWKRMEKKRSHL
T2 sequence (P04070 212-461 limits assumed): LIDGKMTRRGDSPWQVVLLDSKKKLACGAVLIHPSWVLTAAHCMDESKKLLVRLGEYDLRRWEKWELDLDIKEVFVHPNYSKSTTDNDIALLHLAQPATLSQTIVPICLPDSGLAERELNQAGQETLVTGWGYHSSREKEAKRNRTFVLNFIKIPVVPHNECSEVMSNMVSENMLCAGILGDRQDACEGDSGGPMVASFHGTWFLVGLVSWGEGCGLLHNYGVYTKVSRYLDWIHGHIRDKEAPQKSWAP
Procedure: as §1, §2

plasma kallikrein = target: T3, plasma kallikrein (Homo sapiens, UniProt P03952); settings: 100 nM inhibitor; 3.5 nM enzyme
T3 construct: Human plasma kallikrein and Factor XIIa were purchased; purchased Enzyme Research Laboratories, Inc. (South Bend, Ind)
T3 sequence (P03952 20-390 limits assumed): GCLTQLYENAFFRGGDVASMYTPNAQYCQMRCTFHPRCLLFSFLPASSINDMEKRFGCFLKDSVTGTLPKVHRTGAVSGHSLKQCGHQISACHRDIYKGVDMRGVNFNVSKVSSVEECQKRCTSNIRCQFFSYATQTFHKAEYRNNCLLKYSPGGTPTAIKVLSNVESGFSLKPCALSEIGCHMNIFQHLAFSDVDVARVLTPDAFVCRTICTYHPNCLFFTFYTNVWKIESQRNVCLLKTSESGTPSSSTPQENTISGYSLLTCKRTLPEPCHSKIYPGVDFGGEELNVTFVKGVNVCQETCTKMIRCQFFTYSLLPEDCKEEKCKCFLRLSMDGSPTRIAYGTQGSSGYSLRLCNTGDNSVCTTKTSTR
T3 sequence (P03952 391-638 limits assumed): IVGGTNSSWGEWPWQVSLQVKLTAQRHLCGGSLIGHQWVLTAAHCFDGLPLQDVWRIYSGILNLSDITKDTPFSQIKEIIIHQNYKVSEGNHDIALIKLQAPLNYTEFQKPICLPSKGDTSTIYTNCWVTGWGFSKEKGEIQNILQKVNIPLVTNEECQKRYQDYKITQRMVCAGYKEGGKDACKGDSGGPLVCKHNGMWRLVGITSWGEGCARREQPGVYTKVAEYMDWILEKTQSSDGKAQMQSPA
Procedure: as §1, §2

plasmin = target: T4, plasmin (Homo sapiens, UniProt P00747); settings: 100 nM inhibitor; 32 nM enzyme
T4 construct: Human plasmin, S-2302, S-2251, and S-2366 were purchased from Kabi Vitrum (Sweden); purchased Kabi Vitrum (Sweden)
T4 sequence (P00747 97-580 limits assumed): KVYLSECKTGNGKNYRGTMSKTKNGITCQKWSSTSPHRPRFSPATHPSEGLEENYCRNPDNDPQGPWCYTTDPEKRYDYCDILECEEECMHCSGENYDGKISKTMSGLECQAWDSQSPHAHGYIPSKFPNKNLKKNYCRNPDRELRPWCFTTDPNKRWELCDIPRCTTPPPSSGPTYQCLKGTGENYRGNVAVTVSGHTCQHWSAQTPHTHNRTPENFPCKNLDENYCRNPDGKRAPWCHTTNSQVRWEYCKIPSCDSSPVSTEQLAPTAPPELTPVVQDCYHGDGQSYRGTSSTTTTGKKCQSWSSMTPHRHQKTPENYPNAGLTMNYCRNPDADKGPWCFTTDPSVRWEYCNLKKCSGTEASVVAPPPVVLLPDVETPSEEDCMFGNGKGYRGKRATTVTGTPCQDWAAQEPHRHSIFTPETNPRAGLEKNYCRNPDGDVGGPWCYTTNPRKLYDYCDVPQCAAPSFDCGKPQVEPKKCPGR
T4 sequence (P00747 581-810 limits assumed): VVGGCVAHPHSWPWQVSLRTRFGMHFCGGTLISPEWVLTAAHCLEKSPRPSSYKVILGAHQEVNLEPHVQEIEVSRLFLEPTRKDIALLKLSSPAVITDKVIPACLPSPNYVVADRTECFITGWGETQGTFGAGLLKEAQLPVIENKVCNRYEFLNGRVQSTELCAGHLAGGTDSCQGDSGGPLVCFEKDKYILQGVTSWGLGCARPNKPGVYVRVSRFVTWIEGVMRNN
Procedure: as §1, §2

Factor Xa = target: T5, Factor Xa (Homo sapiens, UniProt P00742); settings: 100 nM inhibitor; 2.5 nM enzyme
T5 construct: purchased Haematologic Technologies Inc. (Essex Jct., VT)
T5 sequence (P00742 41-179 limits assumed): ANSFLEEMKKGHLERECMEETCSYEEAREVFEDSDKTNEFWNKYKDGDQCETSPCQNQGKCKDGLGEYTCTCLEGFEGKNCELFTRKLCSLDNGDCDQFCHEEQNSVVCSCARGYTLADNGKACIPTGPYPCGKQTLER
T5 sequence (P00742 235-488 limits assumed): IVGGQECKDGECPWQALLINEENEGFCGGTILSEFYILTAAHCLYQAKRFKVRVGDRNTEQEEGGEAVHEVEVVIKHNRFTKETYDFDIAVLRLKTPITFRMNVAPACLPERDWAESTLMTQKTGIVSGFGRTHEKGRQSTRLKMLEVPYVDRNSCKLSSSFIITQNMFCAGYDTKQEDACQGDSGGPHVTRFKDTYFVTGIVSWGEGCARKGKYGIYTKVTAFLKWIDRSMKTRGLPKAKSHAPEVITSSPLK
Procedure: as §1, §2

Factor XIIa = target: T6, Factor XIIa (Homo sapiens, UniProt P00748); settings: 100 nM inhibitor; 14 nM enzyme
T6 construct: purchased Enzyme Research Laboratories, Inc. (South Bend, Ind)
T6 sequence (P00748 20-372 limits assumed): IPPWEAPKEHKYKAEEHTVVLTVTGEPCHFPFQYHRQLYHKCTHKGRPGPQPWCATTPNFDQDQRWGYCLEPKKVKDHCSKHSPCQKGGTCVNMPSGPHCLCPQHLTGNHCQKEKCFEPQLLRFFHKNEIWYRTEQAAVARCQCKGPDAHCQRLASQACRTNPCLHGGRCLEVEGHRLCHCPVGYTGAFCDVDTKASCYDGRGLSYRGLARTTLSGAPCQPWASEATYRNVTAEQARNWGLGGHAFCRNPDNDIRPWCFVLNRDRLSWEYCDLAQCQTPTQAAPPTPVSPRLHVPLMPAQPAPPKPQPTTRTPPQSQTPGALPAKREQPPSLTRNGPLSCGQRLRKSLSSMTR
T6 sequence (P00748 373-615 limits assumed): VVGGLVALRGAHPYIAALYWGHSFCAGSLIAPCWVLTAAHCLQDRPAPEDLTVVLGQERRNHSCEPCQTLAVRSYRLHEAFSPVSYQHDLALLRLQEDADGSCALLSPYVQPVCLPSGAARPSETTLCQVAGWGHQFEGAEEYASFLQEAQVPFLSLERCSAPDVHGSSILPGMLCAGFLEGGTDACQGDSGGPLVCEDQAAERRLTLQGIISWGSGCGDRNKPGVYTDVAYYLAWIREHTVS
Procedure: as §1, §2

TF-FVIIa = target: T7, TF-FVIIa (Homo sapiens, UniProt P08709); settings: 100 nM inhibitor; TF 77 nM, FVIIa 14 nM
T7 construct: purchased Haematologic Technologies Inc. (Essex Jct., VT) for FVIIa; TF made in house; host or cells: TF1-243: E. coli
T7 sequence (P08709 61-212 limits assumed): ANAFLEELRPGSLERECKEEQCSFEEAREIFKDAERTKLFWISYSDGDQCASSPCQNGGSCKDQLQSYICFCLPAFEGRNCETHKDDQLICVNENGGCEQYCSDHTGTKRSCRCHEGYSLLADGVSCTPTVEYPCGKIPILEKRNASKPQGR
T7 sequence (P08709 213-466 limits assumed): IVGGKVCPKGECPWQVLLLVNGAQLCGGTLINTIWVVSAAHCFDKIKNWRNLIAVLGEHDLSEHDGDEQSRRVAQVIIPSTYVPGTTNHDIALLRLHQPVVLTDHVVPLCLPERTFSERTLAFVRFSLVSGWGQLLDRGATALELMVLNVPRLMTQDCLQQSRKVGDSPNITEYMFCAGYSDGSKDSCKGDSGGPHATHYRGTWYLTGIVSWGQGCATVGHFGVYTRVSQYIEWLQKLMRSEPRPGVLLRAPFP
T7 sequence (P13726 33-275 partner limits assumed): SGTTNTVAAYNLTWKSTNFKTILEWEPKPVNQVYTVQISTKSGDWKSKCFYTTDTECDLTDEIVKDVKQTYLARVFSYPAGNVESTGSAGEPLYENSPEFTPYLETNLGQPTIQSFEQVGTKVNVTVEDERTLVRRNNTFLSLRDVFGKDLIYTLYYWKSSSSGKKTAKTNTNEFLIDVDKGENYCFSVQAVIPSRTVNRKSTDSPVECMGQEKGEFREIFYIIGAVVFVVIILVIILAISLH
Procedure: as §1, §2

thrombin = target: T8, thrombin (Homo sapiens, UniProt P00734); settings: 100 nM inhibitor; 6.2 nM enzyme
T8 construct: purchased Haematologic Technologies Inc. (Essex Jct., VT)
Procedure: as §1, §2

T1 sequence (P03951 19-387 limits assumed): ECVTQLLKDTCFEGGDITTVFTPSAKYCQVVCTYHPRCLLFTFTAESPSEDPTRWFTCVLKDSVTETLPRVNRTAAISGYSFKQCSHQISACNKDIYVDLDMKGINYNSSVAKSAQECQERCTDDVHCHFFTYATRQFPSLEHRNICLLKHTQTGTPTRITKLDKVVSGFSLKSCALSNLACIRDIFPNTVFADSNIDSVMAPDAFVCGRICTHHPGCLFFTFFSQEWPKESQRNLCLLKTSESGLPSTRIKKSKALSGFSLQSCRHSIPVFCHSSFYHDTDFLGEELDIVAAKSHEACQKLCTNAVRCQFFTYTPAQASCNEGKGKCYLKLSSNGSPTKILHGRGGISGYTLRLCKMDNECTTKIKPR
T1 sequence (P03951 388-625 limits assumed): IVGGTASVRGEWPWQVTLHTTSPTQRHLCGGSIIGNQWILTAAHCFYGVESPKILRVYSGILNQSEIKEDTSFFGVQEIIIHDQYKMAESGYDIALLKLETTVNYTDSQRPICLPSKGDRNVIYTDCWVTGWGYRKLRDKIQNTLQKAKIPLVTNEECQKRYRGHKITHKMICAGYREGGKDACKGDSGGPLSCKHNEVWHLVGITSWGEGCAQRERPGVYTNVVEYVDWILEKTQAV

Substance | fraction of remaining proteolytic activity, Factor XIa (Factor XIa) | fraction of remaining proteolytic activity, activated protein C (activated protein C) | fraction of remaining proteolytic activity, plasma kallikrein (plasma kallikrein) | fraction of remaining proteolytic activity, plasmin (plasmin) | fraction of remaining proteolytic activity, Factor Xa (Factor Xa) | fraction of remaining proteolytic activity, Factor XIIa (Factor XIIa) | fraction of remaining proteolytic activity, TF·Factor VIIa (TF-FVIIa) | fraction of remaining proteolytic activity, thrombin (thrombin)
KALI-13: APPI Kunitz domain mutant, R1 SGHCRAAIPR2 FR3 (SEQ ID NO: 1) (VREVCSEQAESGHCRAAIPRWYFDVTEGKCAPFFYGGCGGNRNNFDTEEYCAAVCGSA) | 0.01 | 0.90 | 0.00 | 0.65 | 0.97 | 1.00 | 0.96 | 0.96
KALI-8: APPI Kunitz domain mutant, R1 LGHCRAAIPR2 FR3 (SEQ ID NO: 3) (VREVCSEQAELGHCRAAIPRWYFDVTEGKCAPFFYGGCGGNRNNFDTEEYCAAVCGSA) | 0.00 | 0.89 | 0.00 | 0.83 |  | 1.00 | 0.94 | 0.99
KALI-48: APPI Kunitz domain mutant, R1 TGHCRAAIPR2 FR3 (SEQ ID NO: 2) (VREVCSEQAETGHCRAAIPRWYFDVTEGKCAPFFYGGCGGNRNNFDTEEYCAAVCGSA) | 0.01 | 0.92 | 0.00 | 0.23 | 0.55 | 0.99 | 0.95 | 0.99
KALI-30: APPI Kunitz domain mutant, R1 EGHCRAAILR2 FR3 (SEQ ID NO: 5) (VREVCSEQAEEGHCRAAILRWYFDVTEGKCAPFFYGGCGGNRNNFDTEEYCAAVCGSA) | 0.00 | 0.81 | 0.00 | 0.53 | 0.68 | 0.92 |  | 1.00
KALI-46: APPI Kunitz domain mutant, R1 EGRCRASILR2 FR3 (SEQ ID NO: 33) (VREVCSEQAEEGRCRASILRWYFDVTEGKCAPFFYGGCGGNRNNFDTEEYCAAVCGSA) | 0.00 | 0.83 | 0.00 | 0.64 |  | 0.97 | 0.86 | 0.99
